B1: PriL, primase large noncatalytic subunit, recombinant (natural protein, S. solfataricus, UniProt Q9UWW1 1-307, looked up)
chain: MALDVKKYPFIKSLDDELKKYGGGITLTDLLLNSTTLIDQAKDRIQKTKSGDELPHYVSYNEPVLVFYTTLLSLAILNDVKLIRRYAYAEAKQFRSLLHTENEENLLEISKLLDLKINRCDPIKFYLEKKRRIIQKEFCVHFIDYLKYTKDLKEDWKLSGQILHKGYVYLDKNQLIGLIAESIKSKIVEMIRPLNLKEIPEKLKSLIERRGIIPPCIENILAKEKLNEEEIRTLITFYIDIGKGLSGIVSIMKKYNVSNVEDLYRKYRGDKGTRYIVYSCAKMKQLGLCVSSCNVKNPLQLYFLSNE

Key:
[1] = target: T1, PriS, primase catalytic subunit, recombinant (S. solfataricus, UniProt Q97Z83 1-330); assay: SEC
T1 sequence (looked up): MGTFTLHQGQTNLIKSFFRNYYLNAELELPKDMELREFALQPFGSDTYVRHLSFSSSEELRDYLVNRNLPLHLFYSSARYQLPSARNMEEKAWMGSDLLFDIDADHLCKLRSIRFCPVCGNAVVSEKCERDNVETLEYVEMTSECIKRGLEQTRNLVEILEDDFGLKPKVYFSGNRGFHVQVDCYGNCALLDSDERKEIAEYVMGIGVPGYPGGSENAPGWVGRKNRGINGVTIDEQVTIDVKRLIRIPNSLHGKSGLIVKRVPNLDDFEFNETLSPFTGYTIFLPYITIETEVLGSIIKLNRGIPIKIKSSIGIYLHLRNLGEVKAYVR

[2] = target: T2, PriSL heterodimer (PriS and PriL), recombinant (S. solfataricus, UniProt Q97Z83 1-330; Q9UWW1 1-307); assay: SEC
T2 sequence (looked up) 1: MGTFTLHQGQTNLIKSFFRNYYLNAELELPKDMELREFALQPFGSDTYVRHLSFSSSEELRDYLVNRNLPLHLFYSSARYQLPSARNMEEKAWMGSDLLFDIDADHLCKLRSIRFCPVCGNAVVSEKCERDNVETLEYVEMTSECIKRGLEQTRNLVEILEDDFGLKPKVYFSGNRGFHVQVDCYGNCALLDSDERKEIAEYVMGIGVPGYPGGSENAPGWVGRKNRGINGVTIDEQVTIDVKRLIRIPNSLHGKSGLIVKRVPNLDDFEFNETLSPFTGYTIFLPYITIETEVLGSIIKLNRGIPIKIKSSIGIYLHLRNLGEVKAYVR
T2 sequence (looked up) 2: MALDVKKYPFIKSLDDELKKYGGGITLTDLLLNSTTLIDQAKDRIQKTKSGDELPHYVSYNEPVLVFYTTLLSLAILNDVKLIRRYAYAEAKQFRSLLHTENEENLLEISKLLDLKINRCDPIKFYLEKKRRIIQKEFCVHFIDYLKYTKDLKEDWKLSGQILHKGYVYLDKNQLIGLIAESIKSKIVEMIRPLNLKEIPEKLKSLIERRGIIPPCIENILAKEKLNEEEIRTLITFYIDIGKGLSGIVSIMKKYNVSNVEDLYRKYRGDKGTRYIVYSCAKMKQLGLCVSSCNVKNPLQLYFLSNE

[3] = target: B1; assay: ITC

B1: binds [1].

B2: PriX (product of Sso0502), recombinant full-length protein (natural protein, S. solfataricus, UniProt Q97ZS7 1-154, looked up)
chain: MSQEKKAKKIILHYPDDTPAGYIEYAEGSSSIYDNEGNFLFKVEGKFPPQPKKSSDYSWIEKVLEMGLQDSRKRFILYVASRYLVNVKGVNEDEALQTLKEFYYKLQSGKVYESWLKSVINGVKKKGLLPWSLKRIEERDKEMYNEIIRVLKNS
B2 was tested, and the binding result [2] was “binds” and the “stoichiometry N” value [3] was 1.

From article PMC5898216 (Nature communications, 2015)
